Test results reported in the DeepSol protein solubility set.

Assay: soluble on expression in E. coli; label from the status in PepcDB or PDB records

| Sequence | soluble on expression in E. coli |
| --- | --- |
| MRRRWYNNGGFQTLRMLEESSSEVTSSSALGLPPAMVMSPESLASPEYGGLELWGYDDGITYSMAQSLGTCTMEQQQPQPQQQPQQTQPLPSMPLPMPPTTPKSENESMSSGREELSPASSVNGCSTDGEARRQKKGPAPRQQEELCLVCGDRASGYHYNALTCEGCKGFFRRSVTKNAVYICKFGHACEMDMYMRRKCQECRLKKCLAVGMRPECVVPENQCAMKRKEKKAQREKDKLPVSTTTVDDHMPPIMQCDPPPPEAARIHEVVPRFLNEKLMEQNRLKNVPPLTANQKSLIARLVWYQEGYEQPSEEDLKRVTQTWQSDEDDEDSDMPFRQITEMTILTVQLIVEFAKGLPGFAKISQSDQITLLKACSSEVMMLRVARRYDAATDSVLFANNQAYTRDNYRKAGMAYVIEDLLHFCRCMYSMMMDNVHYALLTAIVIFSDRPGLEQPLLVEEIQRYYLNTLRVYILNQNSASPRCAVIFGKILGILTEIRTLGMQNSNMCISLKLKNRKLPPFLEEIWDVADVATTATPVAAEAPAPLAPAPPARPPATV | soluble |
| SMSRKRPPSDIHDSDGSSSSSHQSLKSTAKWAASLENLLEDPEGVKRFREFLKKEFSEENVLFWLACEDFKKMQDKTQMQEKAKEIYMTFLSSKASSQVNVEGQSRLNEKILEEPHPLMFQKLQDQIFNLMKYDSYSRFLKSDLFLKHKRTEE | soluble |
| MGHHHHHHSHMAVGTSALSKEPWWTLPENFHSPMVFHMEEDQEELIFGLDDTYLRCIELHSHTLIQLERCFTATGQTRVTVVGPPMAKQWLLLMFHCVGSQDSKCHARGLKMLERVRSQPLTNDDLVTSVSLPPYTGD | not soluble |
| GKKQEPYEQVTIDVEEQHQGSVMEALGIRKGEVRDMLPDGKGRVRLEYIIPSRGLIGFRGDFMTMTSGTGLLYSSFSHYDEIKGGEIGQRKNGVLISNATGKALGYALFGLQERGKLMIDANIEVYEGQI | not soluble |
| MGRGRSSSSSSIESSSKSNPFGASSSTRNLSTDLRLGLSFGTSSGTQYFNGGYGYSVAAPAVEDAEYVAAVEEEEENECNSVGSFYVKVNMEGVPIGRKIDLMSLNGYRDLIRTLDFMFNASILWAEEEDMCNEKSHVLTYADKEGDWMMVGDVPWEMFLSTVRRLKISRANYHY | soluble |
| MGSSHHHHHHGKTIFVIVPTNEEQVAFLEALAKQDELNFDWQNPPTEPGQPVVILIPSDMVEWFLEMLKAKGIPFTVYVEEGGSENLYFQGGGGGGRPIVANRARHPALIVDIPFAALAWQCVQFLAVVVAHSLMRQMMLASVIRFTAVFLGIRRCRGAFVVAPLFVLQPLLQHLQQLITHPLTCLQGGIQWQLHALVEHLVHLQHLPSPRVQLSHVTKKRRAPVRKVVCGRIIHVHRTLLLLKQLRLLGVPGTQRAESSEHGGEPLTAVLVQLDKSIASRSGDNGDGGGRCR | not soluble |
| MSLIKQEHMHPPPRAITPLPPATHQITLEEYKEREKKDYYRDATKDASVKKVVLSLLKDHPGMWQNGNRFQPEKWRALGVDVYQRTGQIVRVNDMRKMLVMGKSVLKKKIAICIRDKKLDRAATEKDLWYWEYYRHFLYYRETLGQFEANLRGEEWTGEDQIQDEDDIIYDGMLDGDLSNSSHNFAGHGADDDYQVEEVQYSEAGFRRPESVRGGDSYFGHGPPPQMVMGSSASNFSSATQSHSRNRKSSSIDHTEVDRSAQHIAEQAKRLFLQYPEKSNLIRETMFKTILAFDDPSADYQNVGEIFDDLAAQEAAKKRKRAENRAQREQQ | not soluble |
| MQHEEGNRQRPQGELLLRTVAMPRDTNPNQDIFGGWIMSQMDLGGGILAAEIARGRIVTVAVQEMNFIRPVKVGNVVCCYGHCVRVGNTSLQLKVEVWVKTLMNDCVTEDRHLVTEAVFTYVAIDAEGNPRPIPKEGNPILAGLLPTPLEHHHHHH | soluble |
| MQTENKTSPYYRTKLRGLYTTAKADAEAECSILRRALDKIAEIKSLLEERRIAARMAGVYSDNDPPRKTMRRGVLMTLLQQSAMTLPLWIGKPGESPPPLCGAIPASSDYVAKQGDKVAARVKAVDGDEQWILAEVVSYNHSTNKYEVDDIDEEGKERHTLSRRRIIPLPQWEANPETDPEALFSKDQLVLALYPQTTCFYRALIHTPPHRPQDDYSVLFEDTSYADGYSPPLNVAQRYVVACKENKKK | not soluble |
